# Data published in patent US8460669B2, “Compositions and methods for identifying response targets and treating flavivirus infection responses” (Academia Sinica, priority 2005, dated 2013).
# “Also recorded” adds a separate entry of the source.
# B1: Fc.DC-SIGN: DC-SIGN (CLEC4L) extracellular domain fused to human IgG1 Fc (protein)
# chain: QVSKVPSSISQEQSRQDAIYQNLTQLKAAVGELSEKSKLQEIYQELTQLKAAVGELPEKSKLQEIYQELTRLKAAVGELPEKSKLQEIYQELTWLKAAVGELPEKSKMQEIYQELTRLKAAVGELPEKSKQQEIYQELTRLKAAVGELPEKSKQQEIYQELTRLKAAVGELPEKSKQQEIYQELTQLKAAVERLCHPCPWEWTFFQGNCYFMSNSQRNWHDSITACKEVGAQLVVIKSAEEQNFLQLQSSRSNRFTWMGLSDLNQEGTWQWVDGSPLLPSFKQYWNRGEPNNVGEEDCAEFSGNGWNDDKCNLAKFWICKKSAASCSRDEEQFLSPAPATPNPPPA
# modifications: left off: a dimerising Fc or GST
# Tests used:
# [1] = Enzyme linked immunoassay of receptor.Fc fusions on immobilized GLPS-F3; type: binding, Ganoderma lucidum; conditions: GLPS-F3 100 ng/well; receptor.Fc 1 μg/ml
# Description: The interactions of polysaccharides with receptor.Fc fusion proteins was further investigated by performing an enzyme-linked immunoassay, which was based on immobilizing GLPS-F3 through both hydrophilic and hydrophobic forces onto microtiter plates (polysytrene). In this format, the number of different receptor.Fc fusions for profiling was increased in comparison to Example 7. To optimize the quantity of GLPS-F3 for immobilization, various amounts (3-1000 ng/well, diluted in 100 mM Tris buffer, pH9.5) of biotinylated-GLPS-F3 (Biotin-GLPS-F3) were coated onto MaxiSorp StarWell microtiter plates (50 μL/well; Nunc). The plates were incubated overnight at 4° C., and then the wells were washed twice with TBST, followed by blocking with 200 μL blocking buffer (2% BSA/TBST) for 1 hour at room temperature. Peroxidase-conjugated avidin (1:5000 dilution, Vector Laboratories) and TMB (tetramethylbenzidine) substrate was then used for detection of immobilized biotinylated GLPS-F3.
# The interaction between GLPS-F3 and receptor.Fc was then tested. […] Wells were incubated with 100 μL TMB substrate for 15 min after TBST washing and read at 450 nm in a Fusion plate reader (Perkin Elmer). […]
# Dengue virus [2] = experiment: ELISA of receptor.Fc interaction with Dengue virus; type: binding; conditions: for interaction of receptor.Fc with Dengue virus (ELISA): receptor.Fc 1 μg, DV 5×10^6
# Description: One μg of each receptor.Fc fusion protein was coated onto microtiter plates overnight at 4° C. DV (5×10^6 particles) of strain 16681 (a DEN2 strain) in binding buffer (1% BSA, 2 mM CaCl2, 2 mM MgCl2, 50 mM Tris-HCl pH 7.5, 150 mM NaCl) was then added to the plates and the plates were incubated for 2 hours. After washing non-bound virus, a biotinylated anti-DEN2 envelope protein antibody (Wu et al., J Virol, 2002. 76(8): p. 3596-604) was applied to bind to the virus for 1 hour. Diluted horseradish peroxidase-conjugated streptavidin was then added to the plates, followed by a 1 hour incubation. TMB substrate was then added and the plates were read using an ELISA reader at OD450 nm.
# The microtiter plate assay was repeated in the presence of EDTA (10 mM) to chelate Ca^++ cations.
# The microtiter plate assay was also repeated for DVLR1/CLEC5A.Fc fusion protein with DV particles (5×10^6) that had been 1) preincubated with 500 U of the glycosidase PNGaseF (New England Biolabs, Inc.) overnight at 37° C.; or 2) treated with dithiothreitol (DTTI) (0.1M); or 3) incubated at 95° C. for 5 minutes; or 4) UV irradiated for 5 minutes. The results are shown in FIG. 8D (asterisks indicate where the binding affinity of DVLR1/CLEC5A.Fc fusion protein is altered by modification of the virus relative to non-treated virus; ** p<0.01, *** p<0.001, Student's t test). […]
# Dengue virus [3] = experiment: Immunoprecipitation of Dengue virus with receptor.Fc; type: binding; conditions: receptor.Fc 5 μg; DV 5×10^6; listed as DC-SIGN.Fc
# Description: The results are depicted in FIG. 8A (** indicates p<0.01, *** indicates p<0.001 (Student's t test)). […] Specifically, 5×10^6 Dengue virus particles were incubated with 5 μg of each protein, and then Protein A beads were added. The resulting immunocomplexes were washed, separated by SDS-PAGE, and transferred onto nitrocellulose membrane. The membrane was then probed with biotinylated anti-DEN2 envelope protein antibody and developed with horseradish peroxidase-conjugated streptavidin.
# In FIG. 16b, complexes of DV (5×10^6 PFU) with receptor.Fc (5 μg) were immunoprecipitated and detected on westerns with mAb to DV envelope (E) protein. […] FIGS. 16d and 16e show sugar competition assays wherein both DC-SIGN (CLEC4L) and DVLR1/CLEC5A increase DV binding to human 293T cells (FIG. 16d), while addition of sugars inhibits biotinylated DV binding to DC-SIGN- (left panel) or DLVR1/CLEC5A- (right panel) transfected 293T cells in a dose-dependent manner as determined by flow cytometry (FIG. 16e). According to FIG. 16e, MFI represents mean fluorescence intensity. Units (U) for monosaccharide (mannose and fucose) and polysaccharide (mannan) are mM and mg/ml, respectively. […] Data are expressed as the mean±s.d. of three independent experiments. Two-tailed, Student's t-tests were performed. […]
Molecule,binding ability to GLPS-F3 [1],interaction of receptor.Fc with Dengue virus (ELISA) (Dengue virus [2]),immunoprecipitation of Dengue virus (E protein detected) (Dengue virus [3]),binding to DV pretreated with heat or dithiothreitol (Dengue virus [2]; 95° C. 5 min or DTT 0.1 M),Ca^++ dependence of binding to Dengue virus (Dengue virus [2]; EDTA 10 mM),interaction of receptor.Fc with Dengue virus (ELISA) (Dengue virus [2]; listed as DC-SIGN.Fc)
Fc.DC-SIGNR: DC-SIGNR (CLEC4M) receptor.Fc fusion protein,minimal binding ability,able to capture DV2,,,,
B1,,binds,able to immunoprecipitate DV; also recorded: detected,not,Ca^++ dependent; also recorded: Ca^++-dependent,able to capture DV2
